The record followed here is the supplement of paper PMC12764529.

Series [1] is described as follows: folding stability dG unfold from chymotrypsin proteolysis; higher = more stable. In outline:
(§1)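 Digests were run with trypsin and chymotrypsin at 11 concentrations in threefold dilutions, plus a no-protease condition, on designed mini-proteins in a PA-tagged cDNA display construct. The mini-proteins were under 80 residues, had no cysteine, and were kept only when AlphaFold2 dimer inter-PAE was above 15. After sequencing, Bayesian fitting of the counts gave K50, from which unfolding free energy was derived against a sequence-predicted unfolded-state K50 and a shared folded-state K50, per protease or combined.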

Series [2] can be described thus: folding stability dG unfold from trypsin proteolysis; higher = more stable. In outline: as §1
The nature of series [3]: folding stability dG unfold (combined trypsin and chymotrypsin); higher = more stable. The essentials: as §1

± gives the half width of the 95% confidence interval.

Take “SAGGSAGGSAMKYKVTVTTTPPDGTTTTTPTVVDFKSKEEIEEYVKKKAPKDTKVEVEIEPESAGGSAGGSA [r18_60_JUSTAS]”: the “folding stability dG unfold” value was 0.0584 ± 0.22 kcal/mol in series [1], -0.228 ± 0.085 kcal/mol in series [2] and 0.0447 ± 0.19 kcal/mol in series [3].
On to “SAGGSAGGSAMKYTVTVTLPNGTTLTLDVGTETEEEAVSETKKLIAEKYPDVKGAKIDLTKESAGGSAGGSA [r18_434_JUSTAS]”, for which the “folding stability dG unfold” value was 2.52 ± 0.038 kcal/mol in series [1], 1.88 ± 0.11 kcal/mol in series [2] and 2.33 ± 0.13 kcal/mol in series [3].
Turning to “SAGGSAGGSAMLENARPFPIDLPTKYRLRIVLPDGRVLELEYDPKSGVPRLRVVPVEEALKRSAGGSAGGSA [r18_247_TrMRF]”, the “folding stability dG unfold” value in series [1] was 1.59 ± 0.033 kcal/mol; in series [2], 1.19 ± 0.012 kcal/mol; in series [3], 1.46 ± 0.036 kcal/mol.
On to “SAGGSAGGSAMLTIPVTTPEEARELAEELLRRGYLRVEPTEDGDVTVIHPDGVPTRILVPTESAGGSAGGSA [r18_126_TrMRF]”, for which the figures for the “folding stability dG unfold” value in series [1], in series [2] and in series [3] were 0.551 ± 0.11 kcal/mol, 0.471 ± 0.043 kcal/mol and 0.558 ± 0.059 kcal/mol, respectively.
In the same order, the values of “SAGGSAGGSAMLVIRVYFEDTGRVLTLTADSEEEALEAIKRLLPPGAKIKKVEIFEVSEEDLSAGGSAGGSA [r18_350_TrROS_Hall]” are 4.439 ± 0.041 kcal/mol, 4.08 ± 0.071 kcal/mol and 4.33 ± 0.058 kcal/mol.
In the same order, the values of “SAGGSAGGSAMNRYRILLLDPENGKPLVFELPGNMTPEEAKEAAEELAERFGVTVVAIEGFPSAGGSAGGSA [r18_322_TrMRF]” are 4.362 ± 0.021 kcal/mol, 3.18 ± 0.044 kcal/mol and 4.11 ± 0.057 kcal/mol.
In the same order, the values of “SAGGSAGGSAMPEEVKLRVVKVKVKEVEVETDENGEKRTRVKAEVVEEREITLPKEELEKLSAGGSAGGSAG [r3_121_TrROS_Hall]” are 1.04 ± 0.074 kcal/mol, 2.35 ± 0.18 kcal/mol and 1.76 ± 0.14 kcal/mol.
On to “SAGGSAGGSAMPFRVKVPPGSRVLVTRYLPGGLEREEVELSEDEDELVVEAESGVVEVRVLDSAGGSAGGSA [r18_124_TrMRF]”, for which the “folding stability dG unfold” value in series [1] stood at 0.969 ± 0.28 kcal/mol; in series [2], 0.938 ± 0.07 kcal/mol; in series [3], 0.977 ± 0.21 kcal/mol.
As for “SAGGSAGGSAMPIKYLFPKDKSLEDILDEIIKKTGKPKSEIKNIKLEEIDDEEGFYVAYVESAGGSAGGSAG [r3_26_TrMRF]”, the “folding stability dG unfold” value was determined as 1.13 ± 0.13 kcal/mol in series [1], 1.36 ± 0.092 kcal/mol in series [2] and 1.36 ± 0.22 kcal/mol in series [3].
As to “SAGGSAGGSAMRINIKLPGVETESVEVDPEKGMITARLKFPEGRKVEISFFPDGNVKIHPVSAGGSAGGSAG [r3_348_TrROS]”, the results for the “folding stability dG unfold” value in series [1], in series [2] and in series [3] were 0.751 ± 0.066 kcal/mol, 1.14 ± 0.05 kcal/mol and 0.898 ± 0.11 kcal/mol, respectively.
In the same order, the values of “SAGGSAGGSAMRLRLKVKPGEKVRIRVERDGKVYEFEVTVEEGADEIEIDLPPGVKRIEIEPSAGGSAGGSA [r18_124_TrROS_Hall]” are 3.8 ± 0.095 kcal/mol, 2.76 ± 0.21 kcal/mol and 3.62 ± 0.17 kcal/mol.
Consider “SAGGSAGGSAMSEEEKKKKKPKLEIKVKVEFTVDENGTVRAKVTFEDGTTLEVEIKLPPELLSAGGSAGGSA [r18_192_TrROS_Hall]”, for which the “folding stability dG unfold” value in series [1] was 1.49 ± 0.059 kcal/mol; in series [2], 1.92 ± 0.094 kcal/mol; in series [3], 1.7 ± 0.11 kcal/mol.
In the same order, the values of “SAGGSAGGSAMTLEEKALESEELKKKIEEAPPSTKLITFELPGGEKITFTKNPDGSVVLSPSAGGSAGGSAG [r3_124_JUSTAS]” are 1.41 ± 0.1 kcal/mol, 0.941 ± 0.051 kcal/mol and 1.2 ± 0.11 kcal/mol.
For “SAGGSAGGSAMTPEEIKKLFPNAKMKPFKGNGKTVIVIELPSGEKIEIVFDDGKPRIIVYKGSAGGSAGGSA [r18_13_TrMRF]”, in that order: 1.3 ± 0.091 kcal/mol, 1.36 ± 0.042 kcal/mol and 1.32 ± 0.13 kcal/mol.
Consider “SAGGSAGGSAMTTVTSTTEIPPSALTVKTSVSTAPDGSLVETTTVVLPDGSVVTTTLSTVASAGGSAGGSAG [r3_7_JUSTAS]”, for which the “folding stability dG unfold” value in series [1] was 1.19 ± 0.018 kcal/mol; in series [2], 0.974 ± 0.035 kcal/mol; in series [3], 1.11 ± 0.047 kcal/mol.
Consider “SAGGSAGGSAMVVEERRLPDDLLVRTEVEPVEDNELPGPALRVTVTTVDLKTGEETPEVIPESAGGSAGGSA [r18_66_JUSTAS]”, for which the “folding stability dG unfold” value in series [1] was 0.168 ± 0.03 kcal/mol; in series [2] it was -0.713 ± 0.16 kcal/mol; in series [3], -0.0827 ± 0.091 kcal/mol.
In the same order, the values of “SAGGSAGGSAMVVRGEDLTPEALLELLEENPEEVTLETKDHIATVKFNPETGELEITSVDDISAGGSAGGSA [r18_75_TrMRF]” are 1.73 ± 0.099 kcal/mol, 1.38 ± 0.12 kcal/mol and 1.6 ± 0.13 kcal/mol.
In the same order, the values of “SAGGSAGGSANGFVFKIKEVFEVDGKLFLKVTGTDKEYIIPDNAIIEPLEDDSVKVIILPPESAGGSAGGSA [r18_468_TrMRF]” are 1.35 ± 0.086 kcal/mol, 1.19 ± 0.021 kcal/mol and 1.31 ± 0.061 kcal/mol.
With “SAGGSAGGSANIDIKVEENPGNGYRKVEVTMTVDDLRELFGNEPIPPGEERQIKMTIYLPIPSAGGSAGGSA [r18_327_TrROS]”, the “folding stability dG unfold” value in series [1] was determined as 1.37 ± 0.095 kcal/mol; in series [2] it was 0.772 ± 0.13 kcal/mol; in series [3], 1.21 ± 0.17 kcal/mol.
Turning to “SAGGSAGGSANMPPEELADWIADKFQQRHGHPVKEIEVEHDPENNNYTITVEFDDKERTITLSAGGSAGGSA [r18_145_TrROS]”, the results for the “folding stability dG unfold” value in series [1], in series [2] and in series [3] were 0.839 ± 0.28 kcal/mol, -0.271 ± 0.15 kcal/mol and 0.591 ± 0.22 kcal/mol, respectively.
With “SAGGSAGGSANRKVIQFDSPEEILEAIDEAPEDDPVIIEWHDPDGGEPWWIKFDGDEIELIMSAGGSAGGSA [r18_407_TrROS]”, the results for the “folding stability dG unfold” value in series [1], in series [2] and in series [3] were -0.277 ± 0.41 kcal/mol, -0.66 ± 0.23 kcal/mol and -0.511 ± 0.45 kcal/mol, respectively.
For “SAGGSAGGSAPDIKIEKIGENTYKITLNFEFTFEDGSKVKVKITFTFTVNFPEDDPLLKELFSAGGSAGGSA [r18_215_TrMRF]”, the “folding stability dG unfold” value is 3.213 ± 0.028 kcal/mol in series [1], 2.71 ± 0.061 kcal/mol in series [2] and 3.02 ± 0.11 kcal/mol in series [3].
In the same order, the values of “SAGGSAGGSAPDNVEIEVYELPAGMYRVKIWPPGGNRHEFNFPPGEPKKIKIPPGVSIEIWPFSAGGSAGGS [r12_517_TrROS]” are 0.763 ± 0.29 kcal/mol, 0.462 ± 0.15 kcal/mol and 0.743 ± 0.22 kcal/mol.
Turning to “SAGGSAGGSAPELVKKIAEELPVPVKVEPFGNVLLVELELPNEDGEPVKLRLAIPIPPELLGSAGGSAGGSA [r18_27_TrMRF]”, the “folding stability dG unfold” value is 0.909 ± 0.12 kcal/mol in series [1], -0.195 ± 0.11 kcal/mol in series [2] and 0.463 ± 0.19 kcal/mol in series [3].
For the sequence “SAGGSAGGSAPGKSITITFLFIWPDGWILVMKITFDPDGPGDIDIEWQWIPIPPPEPPPEDPSAGGSAGGSA [r18_409_TrROS]”, the “folding stability dG unfold” value in series [1] worked out at 5.37 ± 0.32 kcal/mol; in series [2], 3.61 ± 0.29 kcal/mol; in series [3] it was 5.16 ± 0.46 kcal/mol.
For “SAGGSAGGSAPIKITEHTYNPGDGMVWATAEAEDPNGWKIKLTIWFFPDGNIQIEITEIVPSAGGSAGGSAG [r3_7_TrROS]”, in that order: 4.39 ± 0.14 kcal/mol, 2.45 ± 0.18 kcal/mol and 3.83 ± 0.28 kcal/mol.
With “SAGGSAGGSAPKEVVVLDLKISPVPDPRYFPAEFTVYIPENGKPFPVTAVFDPEGGEVTIGSAGGSAGGSAG [r3_1_TrMRF]”, the figures for the “folding stability dG unfold” value in series [1], in series [2] and in series [3] were 3.23 ± 0.1 kcal/mol, 2.7 ± 0.071 kcal/mol and 3.04 ± 0.12 kcal/mol, respectively.
